Data: US20100260668A1 (published 2010)

What follows are binders tested against T1, VEGF (UniProt P15692-4 27-191) (assay: SPR (Biacore), DVD-Ig captured, VEGF in solution).
T1 construct: Bought reagent; also called vascular endothelial growth factor
T1 sequence (P15692 other isoform, or with tags, fused parts or gaps limits assumed): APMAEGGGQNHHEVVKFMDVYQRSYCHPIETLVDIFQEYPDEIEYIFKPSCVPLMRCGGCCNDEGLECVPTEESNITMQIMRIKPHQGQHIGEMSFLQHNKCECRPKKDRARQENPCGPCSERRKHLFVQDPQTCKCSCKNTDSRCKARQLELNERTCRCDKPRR

Kd [nM]	koff [s⁻¹]	kon [M⁻¹ s⁻¹]	Binder
0.46	8.15e-05	177000	DVD455 (bispecific antibody, human IgG1, kappa, DVD-Ig; N-term; VD AB069 (DLL4), C-term; VD AB070 (VEGF); HC linker long, LC linker short; also called DVD455H; DVD455L) heavy: not shown light: DIVMTQSPDSLAVSLGERATISCRASESVDNYGISFMKWFQQKPGQPPKLLIYAASNQGSGVPDRFSGSGSGTDFTLTISSLQAEDVAVYYCQQSKEVPWTFGGGTKVEIKRTVAAPDIQMTQSPSSLSASVGDRVTITCRASQDVSTAVAWYQQKPGKAPKLLIYSASFLYSGVPSRFSGSGSGTDFTLTISSLQPEDFATYYCQQSYTTPPTFGQGTKVEIKRTVAAPSVFIFPPSDEQLKSGTASVVCLLNNFYPREAKVQWKVDNALQSGNSQESVTEQDSKDSTYSLSSTLTLSKADYEKHKVYACEVTHQGLSSPVTKSFNRGEC
0.413	0.00016	388000	DVD528 (bispecific antibody, human IgG1, lambda, DVD-Ig; N-term; VD AB071 (VEGF), C-term; VD AB073 (DLL4); HC linker long, LC linker short; also called DVD528H; DVD528L) heavy: not shown light: DIQMTQSPSSLSASVGDRVTITCRASQVIRRSLAWYQQKPGKAPKLLIYAASNLASGVPSRFSGSGSGTDFTLTISSLQPEDFATYYCQQSNTSPLTFGQGTKVEIKRTVAAPQAVVTQESALTTSPGETVTLTCRSSTGAVTTSNYANWVQEKPDHLFTGLIGGTNNRAPGVPARFSGSLIGDKAALTITGAQTEDEAIYFCALWYSNHWVFGGGTKLTVLGQPKAAPSVTLFPPSSEELQANKATLVCLISDFYPGAVTVAWKADSSPVKAGVETTTPSKQSNNKYAASSYLSLTPEQWKSHRSYSCQVTHEGSTVEKTVAPTECS
1.24	0.000497	400000	DVD513 (bispecific antibody, human IgG1, kappa, DVD-Ig; N-term; VD AB073 (DLL4), C-term; VD AB070 (VEGF); HC linker short, LC linker short; also called DVD513H; DVD513L) heavy: not shown light: QAVVTQESALTTSPGETVTLTCRSSTGAVTTSNYANWVQEKPDHLFTGLIGGTNNRAPGVPARFSGSLIGDKAALTITGAQTEDEAIYFCALWYSNHWVFGGGTKLTVLGQPKAAPDIQMTQSPSSLSASVGDRVTITCRASQDVSTAVAWYQQKPGKAPKLLIYSASFLYSGVPSRFSGSGSGTDFTLTISSLQPEDFATYYCQQSYTTPPTFGQGTKVEIKRTVAAPSVFIFPPSDEQLKSGTASVVCLLNNFYPREAKVQWKVDNALQSGNSQESVTEQDSKDSTYSLSSTLTLSKADYEKHKVYACEVTHQGLSSPVTKSFNRGEC
0.176	2.85e-05	162000	DVD498 (bispecific antibody, human IgG1, kappa, DVD-Ig; N-term; VD AB071 (VEGF), C-term; VD AB072 (DLL4); HC linker long, LC linker long; also called DVD498H; DVD498L) heavy: not shown light: DIQMTQSPSSLSASVGDRVTITCRASQVIRRSLAWYQQKPGKAPKLLIYAASNLASGVPSRFSGSGSGTDFTLTISSLQPEDFATYYCQQSNTSPLTFGQGTKVEIKRTVAAPSVFIFPPDIQMTQSSSYLSVSLGGRVTITCKASDHINNWLAWYQQKPGNAPRLLISGATSLETGVPSRFSGSGSGKDYTLSITSLQTEDVATYYCQQYWSIPLTFGAGTKLELKRTVAAPSVFIFPPSDEQLKSGTASVVCLLNNFYPREAKVQWKVDNALQSGNSQESVTEQDSKDSTYSLSSTLTLSKADYEKHKVYACEVTHQGLSSPVTKSFNRGEC
0.0733	1.2e-05	164000	DVD510 (bispecific antibody, human IgG1, kappa, DVD-Ig; N-term; VD AB071 (VEGF), C-term; VD AB072 (DLL4); HC linker short, LC linker long; also called DVD510H; DVD510L) heavy: not shown light: DIQMTQSPSSLSASVGDRVTITCRASQVIRRSLAWYQQKPGKAPKLLIYAASNLASGVPSRFSGSGSGTDFTLTISSLQPEDFATYYCQQSNTSPLTFGQGTKVEIKRTVAAPSVFIFPPDIQMTQSSSYLSVSLGGRVTITCKASDHINNWLAWYQQKPGNAPRLLISGATSLETGVPSRFSGSGSGKDYTLSITSLQTEDVATYYCQQYWSIPLTFGAGTKLELKRTVAAPSVFIFPPSDEQLKSGTASVVCLLNNFYPREAKVQWKVDNALQSGNSQESVTEQDSKDSTYSLSSTLTLSKADYEKHKVYACEVTHQGLSSPVTKSFNRGEC
0.449	0.000168	374000	DVD534 (bispecific antibody, human IgG1, kappa, lambda, L234A L235A, DVD-Ig; N-term; VD AB071 (VEGF), C-term; VD AB073 (DLL4); HC linker short, LC linker long; also called DVD534H; DVD534L) heavy: not shown light: DIQMTQSPSSLSASVGDRVTITCRASQVIRRSLAWYQQKPGKAPKLLIYAASNLASGVPSRFSGSGSGTDFTLTISSLQPEDFATYYCQQSNTSPLTFGQGTKVEIKRTVAAPSVFIFPPQAVVTQESALTTSPGETVTLTCRSSTGAVTTSNYANWVQEKPDHLFTGLIGGTNNRAPGVPARFSGSLIGDKAALTITGAQTEDEAIYFCALWYSNHWVFGGGTKLTVLGQPKAAPSVTLFPPSSEELQANKATLVCLISDFYPGAVTVAWKADSSPVKAGVETTTPSKQSNNKYAASSYLSLTPEQWKSHRSYSCQVTHEGSTVEKTVAPTECS
1.19	0.000414	348000	DVD465 (bispecific antibody, human IgG1, kappa, DVD-Ig; N-term; VD AB015 (DLL4), C-term; VD AB070 (VEGF); HC linker short, LC linker short; also called DVD465H; DVD465L) heavy: not shown light: DIQMTQSPSSLSASVGDRVTITCRASQDVSTAVAWYQQKPGKAPKLLIYSASFLYSGVPSRFSGSGSGTDFTLTISSLQPEDFATTYYCQQSYTGTVTFGQGTKVEIKRTVAAPDIQMTQSPSSLSASVGDRVTITCRASQDVSTAVAWYQQKPGKAPKLLIYSASFLYSGVPSRFSGSGSGTDFTLTISSLQPEDFATYYCQQSYTTPPTFGQGTKVEIKRTVAAPSVFIFPPSDEQLKSGTASVVCLLNNFYPREAKVQWKVDNALQSGNSQESVTEQDSKDSTYSLSSTLTLSKADYEKHKVYACEVTHQGLSSPVTKSFNRGEC
1.02	0.000254	249000	DVD477 (bispecific antibody, human IgG1, kappa, L234A L235A, DVD-Ig; N-term; VD AB015 (DLL4), C-term; VD AB070 (VEGF); HC linker long, LC linker short; also called DVD477H; DVD477L) heavy: not shown light: DIQMTQSPSSLSASVGDRVTITCRASQDVSTAVAWYQQKPGKAPKLLIYSASFLYSGVPSRFSGSGSGTDFTLTISSLQPEDFATTYYCQQSYTGTVTFGQGTKVEIKRTVAAPDIQMTQSPSSLSASVGDRVTITCRASQDVSTAVAWYQQKPGKAPKLLIYSASFLYSGVPSRFSGSGSGTDFTLTISSLQPEDFATYYCQQSYTTPPTFGQGTKVEIKRTVAAPSVFIFPPSDEQLKSGTASVVCLLNNFYPREAKVQWKVDNALQSGNSQESVTEQDSKDSTYSLSSTLTLSKADYEKHKVYACEVTHQGLSSPVTKSFNRGEC
